Tested on: Escherichia coli TOP10
Experiment: shrunken log2 fold change of peptide-encoding DNA abundance (4.5 h post-induction vs induction); higher = less antimicrobial activity (less host growth inhibition)
Details: time post-induction: 4.5 h; library: site-saturation at positions 5, 18, 19, 20
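Also: peptides expressed intracellularly from a pBAD plasmid library in pooled LB shake-flask culture, induced with 0.3% L-arabinose, DNA abundance read by NGS, three biological replicates, DESeq2 with apeglm shrinkage.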

Sequence	shrunken log2 fold change
RRIRNRPPRLPRPRPRPFTMPRP	-0.149
RRIRHRPPRLPRPRPRPFGQPRP	-0.162
RRIRWRPPRLPRPRPRPLYQPRP	-0.363
RRIRPRPPRLPRPRPRPACLPRP	0.0505
RRIRVRPPRLPRPRPRPHSRPRP	0.0978
RRIRVRPPRLPRPRPRPNEYPRP	-0.487
RRIRCRPPRLPRPRPRPKPVPRP	0.179
RRIRQRPPRLPRPRPRPNFIPRP	-0.402
RRIRNRPPRLPRPRPRPLTQPRP	-0.328
RRIRVRPPRLPRPRPRPHWWPRP	0.355
RRIRGRPPRLPRPRPRPEMLPRP	1.71
RRIRTRPPRLPRPRPRPCYYPRP	0.0075
RRIRTRPPRLPRPRPRPYGSPRP	-0.154
RRIRARPPRLPRPRPRPNINPRP	-0.349
RRIRWRPPRLPRPRPRPNFFPRP	0.0572
RRIRLRPPRLPRPRPRPYYCPRP	-0.223
RRIRRRPPRLPRPRPRPQWAPRP	0.0248
RRIRYRPPRLPRPRPRPRTAPRP	-0.0512
RRIRKRPPRLPRPRPRPDLFPRP	0.529
RRIRSRPPRLPRPRPRPYPYPRP	-0.646
RRIRIRPPRLPRPRPRPILAPRP	-0.286
RRIRPRPPRLPRPRPRPNHHPRP	-0.509
RRIRSRPPRLPRPRPRPLESPRP	0.14
RRIRSRPPRLPRPRPRPNHIPRP	-0.651
RRIRTRPPRLPRPRPRPELSPRP	-0.0448

Sequence	shrunken log2 fold change
RRIRKRPPRLPRPRPRPPKHPRP	0.723
RRIRVRPPRLPRPRPRPHHAPRP	-0.0431
RRIRERPPRLPRPRPRPPKNPRP	0.284
RRIRYRPPRLPRPRPRPPNTPRP	-0.686
RRIRYRPPRLPRPRPRPDRLPRP	-0.216
RRIRYRPPRLPRPRPRPHRQPRP	-0.0423
RRIRGRPPRLPRPRPRPFCYPRP	0.362
RRIRSRPPRLPRPRPRPNPTPRP	0.017
RRIRRRPPRLPRPRPRPCHFPRP	-0.181
RRIRTRPPRLPRPRPRPFYPPRP	-0.478
RRIRPRPPRLPRPRPRPWAHPRP	-0.00675
RRIRFRPPRLPRPRPRPHWLPRP	-0.066
RRIRKRPPRLPRPRPRPHVPPRP	0.207
RRIRHRPPRLPRPRPRPTSHPRP	-0.837
RRIRHRPPRLPRPRPRPVNKPRP	-0.579
RRIRFRPPRLPRPRPRPAYWPRP	0.21
RRIRDRPPRLPRPRPRPKHHPRP	-0.272
RRIRTRPPRLPRPRPRPCCFPRP	-0.114
RRIRSRPPRLPRPRPRPMKLPRP	-0.0255
RRIRGRPPRLPRPRPRPEHQPRP	0.529
RRIRLRPPRLPRPRPRPWELPRP	-0.00192
RRIRVRPPRLPRPRPRPHTNPRP	-0.471
RRIRLRPPRLPRPRPRPYCDPRP	-0.328
RRIRYRPPRLPRPRPRPSIMPRP	-1.54
RRIRMRPPRLPRPRPRPCCSPRP	0.0205

Sequence	shrunken log2 fold change
RRIRIRPPRLPRPRPRPDDSPRP	-0.267
RRIRVRPPRLPRPRPRPCFEPRP	-0.0173
RRIRWRPPRLPRPRPRPVYNPRP	-0.817
RRIRGRPPRLPRPRPRPWGYPRP	0.094
RRIRSRPPRLPRPRPRPVATPRP	0.707
RRIRQRPPRLPRPRPRPGVSPRP	-0.0696
RRIRSRPPRLPRPRPRPTEEPRP	0.234
RRIRFRPPRLPRPRPRPHQTPRP	0.0857
RRIRSRPPRLPRPRPRPLNMPRP	-0.316
RRIRSRPPRLPRPRPRPGFMPRP	-0.101
RRIRGRPPRLPRPRPRPMPMPRP	0.352
RRIRHRPPRLPRPRPRPIFMPRP	-0.0784
RRIRRRPPRLPRPRPRPFCKPRP	-0.188
RRIRQRPPRLPRPRPRPKTWPRP	1.14
RRIRWRPPRLPRPRPRPYNYPRP	-0.331
RRIRIRPPRLPRPRPRPLHPPRP	-0.0764
RRIRSRPPRLPRPRPRPYFDPRP	-0.597
RRIRCRPPRLPRPRPRPQNRPRP	-0.111
RRIRYRPPRLPRPRPRPEQQPRP	-0.0122
RRIRARPPRLPRPRPRPRYPPRP	0.0172
RRIRPRPPRLPRPRPRPAPQPRP	0.461
RRIRSRPPRLPRPRPRPCITPRP	-0.185
RRIRVRPPRLPRPRPRPDNSPRP	-0.202
RRIRRRPPRLPRPRPRPANHPRP	0.097
RRIRTRPPRLPRPRPRPPYFPRP	0.202

Sequence	shrunken log2 fold change
RRIRIRPPRLPRPRPRPTHHPRP	0.155
RRIRGRPPRLPRPRPRPQKFPRP	-0.0494
RRIRQRPPRLPRPRPRPEKMPRP	-0.145
RRIRRRPPRLPRPRPRPTTTPRP	0.34
RRIRGRPPRLPRPRPRPIDCPRP	-0.00142
RRIRGRPPRLPRPRPRPRNSPRP	0.114
RRIRQRPPRLPRPRPRPPPYPRP	-0.0506
RRIRVRPPRLPRPRPRPPLKPRP	0.343
RRIRYRPPRLPRPRPRPPWDPRP	0.128
RRIRQRPPRLPRPRPRPGWTPRP	0.286
RRIRRRPPRLPRPRPRPMWQPRP	0.381
RRIRQRPPRLPRPRPRPSCCPRP	-0.408
RRIRTRPPRLPRPRPRPIYNPRP	-0.254
RRIRFRPPRLPRPRPRPWYLPRP	-0.549
RRIRTRPPRLPRPRPRPEMMPRP	-0.0411
RRIRQRPPRLPRPRPRPAWSPRP	0.183
RRIRHRPPRLPRPRPRPSDIPRP	-0.978
RRIRERPPRLPRPRPRPEECPRP	-0.000921
RRIRFRPPRLPRPRPRPEYFPRP	0.186
RRIRRRPPRLPRPRPRPGMHPRP	0.217
RRIRGRPPRLPRPRPRPAYTPRP	-0.166
RRIRRRPPRLPRPRPRPWKTPRP	0.00424
RRIRRRPPRLPRPRPRPRVSPRP	0.335
RRIRARPPRLPRPRPRPLKFPRP	-0.38
RRIRLRPPRLPRPRPRPLREPRP	0.332

Sequence	shrunken log2 fold change
RRIRVRPPRLPRPRPRPQNNPRP	-0.66
RRIRYRPPRLPRPRPRPGHMPRP	-0.195
RRIRHRPPRLPRPRPRPPSLPRP	-0.0977
RRIRWRPPRLPRPRPRPFYMPRP	-0.297
RRIRSRPPRLPRPRPRPWRDPRP	0.0985
RRIRRRPPRLPRPRPRPRDTPRP	0.6
RRIRPRPPRLPRPRPRPASVPRP	0.185
RRIRPRPPRLPRPRPRPGRSPRP	0.0919
RRIRSRPPRLPRPRPRPEHAPRP	-0.0123
RRIRDRPPRLPRPRPRPEAIPRP	0.0379
RRIRVRPPRLPRPRPRPGDGPRP	0.532
RRIRLRPPRLPRPRPRPGMKPRP	-0.0618
RRIRWRPPRLPRPRPRPVMYPRP	-0.0288
RRIRIRPPRLPRPRPRPMKCPRP	-0.0692
RRIRERPPRLPRPRPRPDNAPRP	-0.245
RRIRHRPPRLPRPRPRPSIMPRP	-0.423
RRIRGRPPRLPRPRPRPDFVPRP	0.0455
RRIRARPPRLPRPRPRPHDQPRP	0.808
RRIRHRPPRLPRPRPRPPEVPRP	0.0634
RRIRFRPPRLPRPRPRPYIEPRP	-0.504
RRIRHRPPRLPRPRPRPDDHPRP	0.0155
RRIRCRPPRLPRPRPRPIIWPRP	-0.178
RRIRARPPRLPRPRPRPVFPPRP	0.207
RRIRMRPPRLPRPRPRPAFCPRP	0.455
RRIRQRPPRLPRPRPRPVTHPRP	4.01

— the supplement of paper PMC9112550, “Optimization of the antimicrobial peptide Bac7 by deep mutational scanning” (BMC Biology, 2022)
